These results are taken from article PMC5148588.

The experiment addresses peptide containing the sequence LAETG.

B1: SrtE1^ΔN, extracellular domain of sortase E1 from Streptomyces coelicolor (residues T162-S352), Q9XA14 162-352 (enzyme)
chain: TNVRAHAQANQAASNLQDDWANGKRSPGSFEPGQGFALLHIPKLDVVVPIAEGISSKKVLDRGMVGHYAEDGLKTAMPDAKAGNFGLAGHRNTHGEPFRYINKLEPGDPIVVETQDKYFVYKMASILPVTSPSNVSVLDPVPKQSGFKGPGRYITLTTCTPEFTSKYRMIVWGKMVEERPRSKGKPDALVS
Turning to B1, the hydrolysis of the peptide at the T-G bond, in vitro HPLC assay (area of the N-terminal product peak); preference against the LPETG peptide was found to be 2 fold.
